Source: the supplement of paper PMC12764529
± gives the half width of the 95% confidence interval.

Legend:
[1] = folding stability dG unfold (combined trypsin and chymotrypsin); higher = more stable
In short: (§1)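 Designed mini-proteins (under 80 residues, no cysteine) in a PA-tagged cDNA display construct were digested with trypsin and chymotrypsin. Each protease was used at 11 concentrations (threefold dilutions) plus a no-protease condition, followed by sequencing. K50 was inferred by Bayesian fitting of sequencing counts, and unfolding free energy was derived against a sequence-predicted unfolded-state K50 and a shared folded-state K50, per protease or combined. Only designs with AlphaFold2 dimer inter-PAE above 15 were kept.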

[2] = folding stability dG unfold from trypsin proteolysis; higher = more stable
In short: as §1

[3] = folding stability dG unfold from chymotrypsin proteolysis; higher = more stable
In short: as §1

SAGGSAGGSMSTSLSLSSAPGVSVVTTAHPDSTVVTEQPPDGSRVVRVLDPAGELVAEEAVAPSAGGSAGGS [r12_471_JUSTAS]
folding stability dG unfold [1]: -0.33 ± 0.15 kcal/mol
folding stability dG unfold [2]: -0.623 ± 0.36 kcal/mol
folding stability dG unfold [3]: -0.302 ± 0.16 kcal/mol

SAGGSAGGSMTFEILPDGKTKTLTLDEAKELILNEVPPDTTVVNLDTGKVISAEEFLKLLGIKVSAGGSAGG [r6_937_JUSTAS]
folding stability dG unfold [1]: 0.998 ± 0.084 kcal/mol
folding stability dG unfold [2]: 0.998 ± 0.016 kcal/mol
folding stability dG unfold [3]: 0.943 ± 0.084 kcal/mol

SAGGSAGGSMTIDGNALYEELGKDLPDEEKRKLFEEKAEEIAKKLGIPNMKVNINIKKPNEIKSAGGSAGGS [r12_666_JUSTAS]
folding stability dG unfold [1]: 0.0998 ± 0.078 kcal/mol
folding stability dG unfold [2]: -0.213 ± 0.093 kcal/mol
folding stability dG unfold [3]: 0.135 ± 0.051 kcal/mol

SAGGSAGGSMTITKRSDGTIEVEIEISPEHPDVSPEEVKERVKKELEKKGIKTPVKITVKPVPESAGGSAGG [r6_480_JUSTAS]
folding stability dG unfold [1]: 1.92 ± 0.19 kcal/mol
folding stability dG unfold [2]: 1.35 ± 0.044 kcal/mol
folding stability dG unfold [3]: 2.27 ± 0.14 kcal/mol

SAGGSAGGSMTIVDPETGETLEIIEVKKNEDGKESFIFRISSPKPRYFIIDKDGNIRVIEKKDSAGGSAGGS [r12_205_TrROS_Hall]
folding stability dG unfold [1]: 1.34 ± 0.074 kcal/mol
folding stability dG unfold [2]: 1.36 ± 0.022 kcal/mol
folding stability dG unfold [3]: 1.23 ± 0.2 kcal/mol

SAGGSAGGSMTIVIKVKSKEDALEAAKALLAELGIEEGAEVKKIEVEEVDPENKEYYVRIEVKSAGGSAGGS [r12_999_TrROS_Hall]
folding stability dG unfold [1]: 1.75 ± 0.14 kcal/mol
folding stability dG unfold [2]: 1.72 ± 0.13 kcal/mol
folding stability dG unfold [3]: 1.7 ± 0.029 kcal/mol

SAGGSAGGSMTPVPGGYVITIETPAPGGVPLATLYVPSREEAEAAIAEIPAEDLTAVTVEPVLLSAGGSAGG [r6_705_JUSTAS]
folding stability dG unfold [1]: 0.719 ± 0.081 kcal/mol
folding stability dG unfold [2]: 0.714 ± 0.034 kcal/mol
folding stability dG unfold [3]: 0.566 ± 0.13 kcal/mol

SAGGSAGGSMVEYTFTVYDPRTGKETLFTVPSDIPFEEAKEKVEKEIRKGLPPNYTVTFTKPASAGGSAGGS [r20_213_JUSTAS]
folding stability dG unfold [1]: 1.58 ± 0.089 kcal/mol
folding stability dG unfold [2]: 1.75 ± 0.035 kcal/mol
folding stability dG unfold [3]: 1.45 ± 0.11 kcal/mol

SAGGSAGGSMVLNFEDTKPGVSPEEAAARVAAKIRAEHDVAVLGVEVETSPTGGYHITITVDPSAGGSAGGS [r12_781_JUSTAS]
folding stability dG unfold [1]: 0.391 ± 0.062 kcal/mol
folding stability dG unfold [2]: 0.325 ± 0.059 kcal/mol
folding stability dG unfold [3]: 0.272 ± 0.08 kcal/mol

SAGGSAGGSMVPGKLLVTITDPNNGLTTTLDLPLEVKTEEDIEAEVQKIKEENPGKKVSVKLLSAGGSAGGS [r12_65_JUSTAS]
folding stability dG unfold [1]: 1.69 ± 0.054 kcal/mol
folding stability dG unfold [2]: 1.65 ± 0.057 kcal/mol
folding stability dG unfold [3]: 1.687 ± 0.013 kcal/mol

SAGGSAGGSMVTPDGRLVIEIEVSEEDIEKLKEEARKKLGVKEVKVEVEEKDGKLKVRIVVEPSAGGSAGGS [r12_929_TrROS_Hall]
folding stability dG unfold [1]: 1.77 ± 0.29 kcal/mol
folding stability dG unfold [2]: 0.743 ± 0.092 kcal/mol
folding stability dG unfold [3]: 2.19 ± 0.15 kcal/mol

SAGGSAGGSMVVVRRLPDGRYLLEVRLEGESLRFEVDGEEEVERFAKALEELTGRPVEVLTVESAGGSAGGS [r12_783_TrMRF]
folding stability dG unfold [1]: 4.15 ± 0.061 kcal/mol
folding stability dG unfold [2]: 4.56 ± 0.12 kcal/mol
folding stability dG unfold [3]: 3.84 ± 0.043 kcal/mol

SAGGSAGGSMYIVNIKFYNPKTGKVLYIPIKTKKEKAEEIAKELAKKLPEIKYIKAEIKPDISSAGGSAGGS [r12_757_TrMRF]
folding stability dG unfold [1]: 1.59 ± 0.19 kcal/mol
folding stability dG unfold [2]: 1.21 ± 0.093 kcal/mol
folding stability dG unfold [3]: 1.74 ± 0.19 kcal/mol

SAGGSAGGSMYIVRIEVVNEETGKTEEIELEVSEEEAEELAKELAEKLPNIKEIKVEIRPLPESAGGSAGGS [r12_757_TrROS_Hall]
folding stability dG unfold [1]: 1.66 ± 0.21 kcal/mol
folding stability dG unfold [2]: 1.37 ± 0.15 kcal/mol
folding stability dG unfold [3]: 1.96 ± 0.051 kcal/mol

SAGGSAGGSMYRVRIKVRNRETGEWLEIELEVPEGVTEEELKAALRELFPDAEIVDIEIEKLPSAGGSAGGS [r12_738_TrROS_Hall]
folding stability dG unfold [1]: 4.12 ± 0.2 kcal/mol
folding stability dG unfold [2]: 3.68 ± 0.14 kcal/mol
folding stability dG unfold [3]: 4.34 ± 0.11 kcal/mol

SAGGSAGGSMYVVKIKLKVYGENGEEYYFELELEVPEDELGEIEIELPGENLEFEAEVEVLPGSAGGSAGGS [r12_354_TrMRF]
folding stability dG unfold [1]: 3.38 ± 0.14 kcal/mol
folding stability dG unfold [2]: 2.63 ± 0.15 kcal/mol
folding stability dG unfold [3]: 3.73 ± 0.12 kcal/mol

SAGGSAGGSNGDKKPPVKWEWVMIEIEIPPDDIDEIAEEFPGFSVNYERDNGHYRVNIMIPVPYSAGGSAGG [r6_686_TrROS]
folding stability dG unfold [1]: 1.73 ± 0.089 kcal/mol
folding stability dG unfold [2]: 1.35 ± 0.021 kcal/mol
folding stability dG unfold [3]: 1.94 ± 0.093 kcal/mol

SAGGSAGGSNMPIKNVELHPLPNGWYLIKIRYGGKTRTFLFPPGAPFEIPLPPGMEIDIYPLNSAGGSAGGS [r12_373_TrROS]
folding stability dG unfold [1]: 3.84 ± 0.043 kcal/mol
folding stability dG unfold [2]: 3.73 ± 0.066 kcal/mol
folding stability dG unfold [3]: 3.933 ± 0.038 kcal/mol

SAGGSAGGSNNPDKKKKPRYVVIQIELKWYPNPNGQWSPELEITATVPAGDLEDKDDAIKDIISAGGSAGGS [r12_933_TrROS]
folding stability dG unfold [1]: 1.68 ± 0.17 kcal/mol
folding stability dG unfold [2]: 2.13 ± 0.098 kcal/mol
folding stability dG unfold [3]: 1.29 ± 0.064 kcal/mol

SAGGSAGGSNWYQFTIPFPIPPDEPVEIKLPDGWEIHEIPPNSGRITIYMPMNNMDAIKEAIGSAGGSAGGS [r12_476_TrROS]
folding stability dG unfold [1]: 1.19 ± 0.056 kcal/mol
folding stability dG unfold [2]: 1.214 ± 0.012 kcal/mol
folding stability dG unfold [3]: 1.01 ± 0.045 kcal/mol

SAGGSAGGSPANIKITTTLDTETGYLTIVAYNPATGKVTVLTAKIYGNVPHIDGLEALFGALGSAGGSAGGS [r20_131_TrMRF]
folding stability dG unfold [1]: 2.7 ± 0.18 kcal/mol
folding stability dG unfold [2]: 2.07 ± 0.086 kcal/mol
folding stability dG unfold [3]: 3.02 ± 0.078 kcal/mol
